Numbering of substitutions follows the chain as printed. Values joined by “and” are separate entries in the source; they are usually repeats but may differ in a detail not shown here. Equal entries are not always repeated.
Legend:
human IL-23 [1] = molecular target: T1, human IL-23 (human, UniProt P29460 23-328); experiment: cell-based or functional assay
T1 sequence 1: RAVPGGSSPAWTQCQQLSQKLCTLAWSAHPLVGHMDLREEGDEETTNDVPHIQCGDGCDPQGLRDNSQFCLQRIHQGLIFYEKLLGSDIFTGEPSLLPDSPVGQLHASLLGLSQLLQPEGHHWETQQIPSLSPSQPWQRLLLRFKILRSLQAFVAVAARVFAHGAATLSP
T1 sequence 2: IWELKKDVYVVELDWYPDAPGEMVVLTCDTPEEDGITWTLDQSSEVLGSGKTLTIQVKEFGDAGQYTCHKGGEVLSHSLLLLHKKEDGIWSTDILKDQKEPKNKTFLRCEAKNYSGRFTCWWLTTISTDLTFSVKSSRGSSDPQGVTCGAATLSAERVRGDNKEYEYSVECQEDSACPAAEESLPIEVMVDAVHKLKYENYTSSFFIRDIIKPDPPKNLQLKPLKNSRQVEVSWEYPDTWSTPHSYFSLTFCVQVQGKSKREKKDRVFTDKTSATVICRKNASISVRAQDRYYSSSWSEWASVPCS

human IL-23 [2] = molecular target: T1, human IL-23; experiment: cell-based or functional assay; remark: listed apart in the source
human IL-23 [3] = molecular target: T1, human IL-23; experiment: BIAcore (SPR), antibody amine-coupled to CM5 chip, IL-23 as analyte; first replicate determination
Protocol: (§1) BIAcore determinations are performed essentially as described at Example 4 of commonly assigned U.S. Patent Application Publication No. 2007/0048315. Briefly, ligands (anti-IL-23 mAbs) are immobilized on a BlAcore CM5 sensor chip using standard amine-coupling procedure. IL-23 is diluted in PBS to produce various concentrations. Kinetic constants for the various interactions are determined using BIAevaluation software 3.1. The Kd is determined using the calculated dissociation and association rate constants.

human IL-23 [4] = molecular target: T1, human IL-23; experiment: BIAcore (SPR), antibody amine-coupled to CM5 chip, IL-23 as analyte; second replicate determination
Protocol: as §1
Table 4 provides the Kd values as determined by BlAcore, including replicate determinations.

human IL-23 [5] = molecular target: T1, human IL-23; experiment: cell-based or functional assay; remark: listed apart in the source
human IL-23 [6] = molecular target: T1, human IL-23; experiment: BIAcore (SPR), essentially as in Example 4
Protocol: as §1

human IL-23 [7] = molecular target: T1, human IL-23; experiment: BIAcore (SPR), antibody amine-coupled to CM5 chip, IL-23 as analyte
Protocol: as §1

[8] = molecular target: T2, non-linked (native) human IL-23 comprising two disulfide-linked chains, human p19 and human p40 (human, UniProt P29460 23-328); experiment: KinExA, antibody pre-incubated with native human IL-23 in solution; third replicate determination
T2 sequence 1: T1 sequence 1
T2 sequence 2: T1 sequence 2
Protocol: (§2) The equilibrium dissociation constant (Kd) for anti human IL-23 antibodies is determined using the KinExA 3000 instrument. Sapidyne Instruments Inc., Boise Id., USA. KinExA uses the principle of the Kinetic Exclusion Assay method based on measuring the concentration of uncomplexed antibody in a mixture of antibody, antigen and antibody-antigen complex. The concentration of free antibody is measured by exposing the mixture to a solid-phase immobilized antigen for a very brief period of time. In practice, this is accomplished by flowing the solution phase antigen-antibody mixture past antigen-coated particles trapped in a flow cell. Data generated by the instrument are analyzed using custom software. Equilibrium constants are calculated using a mathematical theory based on the following assumptions: […]
(§3) Binding of anti-IL-23p19 antibodies is assessed in a competition binding assay, in which antibodies are pre-incubated with non-linked (native) human IL-23 comprising two disulfide-linked chains, human p19 (SEQ ID NO: 47) and human p40 (GenBank Accession No. P29460), at a series of concentrations. […] The amount of antibody captured by the PMMA particles is then detected using a fluorescently labeled secondary antibody.

[9] = molecular target: T2, non-linked (native) human IL-23 …; experiment: KinExA, antibody pre-incubated with native human IL-23 in solution; fourth replicate determination
Protocol: as §2, §3

[10] = molecular target: T2, non-linked (native) human IL-23 …; experiment: KinExA, antibody pre-incubated with native human IL-23 in solution; second replicate determination
Protocol: as §2, §3

[11] = molecular target: T2, non-linked (native) human IL-23 …; experiment: KinExA, antibody pre-incubated with native human IL-23 in solution; first replicate determination (64 ± 40)
Protocol: as §2, §3

human IL-23 [12] = molecular target: T1, human IL-23; experiment: BIAcore (SPR), antibody amine-coupled to CM5 chip, IL-23 as analyte; first determination, lower end of range 72-104
Protocol: as §1

human IL-23 [13] = molecular target: T1, human IL-23; experiment: BIAcore (SPR), antibody amine-coupled to CM5 chip, IL-23 as analyte; first determination, upper end of range 72-104
Protocol: as §1

human IL-23 [14] = molecular target: T1, human IL-23; experiment: BIAcore (SPR), antibody amine-coupled to CM5 chip, IL-23 as analyte; third determination, lower end of range 81-129
Protocol: as §1

human IL-23 [15] = molecular target: T1, human IL-23; experiment: BIAcore (SPR), antibody amine-coupled to CM5 chip, IL-23 as analyte; third determination, upper end of range 81-129
Protocol: as §1

human IL-23 [16] = molecular target: T1, human IL-23; experiment: BIAcore (SPR), antibody amine-coupled to CM5 chip, IL-23 as analyte; second determination, lower end of range 68-100
Protocol: as §1

human IL-23 [17] = molecular target: T1, human IL-23; experiment: BIAcore (SPR), antibody amine-coupled to CM5 chip, IL-23 as analyte; second determination, upper end of range 68-100
Protocol: as §1

B1: murine antibody 13B8 (mouse IgG1/kappa) (antibody, V domains shown)
VH: HVQLQQSGPELVRPGASVELSCKASGYIFITYWMTWMKQRPGQGLEWIGQIFPASGSADYNEMFEGKATLTVDTSSNTAYMQLSSLTSEDSAVYFCARGGGGFAYWGQGTLVTVSA
VL: DIQMTQSPASLSASVGETVTITCRTSENIYSYLAWYQQKQGKSPQLLVYNAKTLAEGVPSRFSGSGSGTQFSLKINRLQPEDFGRYFCQHHYGIPFTFGSGTKLEIKR
notes: also called m13B8; mouse 13B8
How did the “IC50 for blocking of Ba/F3 cell proliferation” value (from here on “IC50 for blocking”) (human IL-23 [1]) turn out when B1 was run?
The value was 700 pM.

What about the “Splenocyte assay IC50 (IL-17 production by mouse splenocytes)” value (human IL-23 [2]) of the same binder?
Its value is 64 pM and 28 pM and 54 pM.

And the Kd (human IL-23 [3])?
Its Kd is 0.173 nM.

What about the Kd (human IL-23 [4]) of the same binder?
The Kd was 0.228 nM.

B2: humanized anti-IL-23p19 antibody 13B8-b (antibody, human IgG1, kappa, V domains shown)
VH: QVQLVQSGAEVKKPGASVKVSCKASGYIFITYWMTWVRQAPGQGLEWMGQIFPASGSADYNEKFEGRVTMTTDTSTSTAYMELRSLRSDDTAVYYCARGGGGFAYWGQGTLVTVSS
VL: DIQMTQSPSSLSASVGDRVTITCRTSENIYSYLAWYQQKPGKAPKLLIYNAKTLAEGVPSRFSGSGSGTDFTLTISSLQPEDFATYYCQHHYGIPFTFGQGTKVEIKR
notes: also called hum13B8-b; Hum 13B8-b
What does the source list for B2?
IC50 in the Ba/F3 proliferation assay (340 pM IL-23) (human IL-23 [5]): 187 pM; IC50 in the KIT225 STAT-3 phosphorylation assay (138 pM human IL-23) (human IL-23 [5]): 130 pM; IC50 in the human splenocyte assay (IFN-γ production, 170 pM human IL-23) (human IL-23 [5]): 59 to 144 pM; IC50 for blocking of Ba/F3 cell proliferation (human IL-23 [1]): 1200 pM and 1100 pM; Splenocyte assay IC50 (IL-17 production by mouse splenocytes) (human IL-23 [2]): 110 pM and 221 pM; Kd (human IL-23 [6]): 0.297 nM; Kd (human IL-23 [7]): 0.077 nM and 0.129 nM and 0.069 nM and 0.116 nM

B3: humanized anti-IL-23p19 antibody 13B8-a (antibody, human IgG1, kappa, V domains shown)
VH: B2 VH with K63M
VL: B2 VL
notes: also called hum13B8-a; h13B8-a
For B3, which “IC50 for blocking” value (human IL-23 [1]) is on record?
The value was 1100 pM.

What about the Kd [8] of the same binder?
The Kd was 0.365 nM.

And the Kd [9]?
The Kd was 0.447 nM.

What about the Kd [10] of the same binder?
Its Kd is 0.11 nM.

And the Kd [11]?
The Kd was 0.064 nM.

And the Kd (human IL-23 [12])?
The Kd was ≥ 0.072 nM.

What about the Kd (human IL-23 [13]) of the same binder?
Its Kd is ≤ 0.104 nM.

What about the Kd (human IL-23 [14]) of the same binder?
The Kd was ≥ 0.081 nM.

And the Kd (human IL-23 [15])?
The Kd was ≤ 0.129 nM.

And the Kd (human IL-23 [16])?
The Kd was ≥ 0.068 nM.

And the Kd (human IL-23 [17])?
Its Kd is ≤ 0.1 nM.

B4: humanized anti-IL-23p19 antibody 13B8-c (antibody, human IgG1, kappa, V domains shown)
VH: B2 VH with N61A, E62Q, F64L, E65Q
VL: B2 VL
notes: also called hum13B8-c; h13B8-c
How did the “IC50 for blocking” value (human IL-23 [1]) turn out when B4 was run?
The value was 1100 pM and 2200 pM.

What about the “Splenocyte assay IC50 (IL-17 production by mouse splenocytes)” value (human IL-23 [2]) of the same binder?
The value was 515 pM.

What about the Kd (human IL-23 [7]) of the same binder?
Its Kd is 0.092 to 0.153 nM.
